Experimental data taken from US20230055235.

Experiments:
[1] = target: T1, PD-L1 (programmed death-ligand 1) (Homo sapiens?) (UniProt Q9NZQ7); assay: inhibition; conditions: PD-1/PD-L1 binding ELISA
[2] = target: T1, PD-L1 (programmed death-ligand 1); assay: filter; conditions: 37 C

T1 sequence (Q9NZQ7 19-238): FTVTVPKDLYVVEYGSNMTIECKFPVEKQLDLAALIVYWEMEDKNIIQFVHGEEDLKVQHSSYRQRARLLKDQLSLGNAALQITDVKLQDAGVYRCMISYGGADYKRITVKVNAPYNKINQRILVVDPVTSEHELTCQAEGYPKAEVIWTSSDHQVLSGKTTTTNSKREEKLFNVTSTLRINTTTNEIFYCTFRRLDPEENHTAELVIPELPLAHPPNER

Row | Sequence | IC50 ([1]; Bz-dU at every n) [nM] | further results
1 | GAGTGACCGTCTGCCTGATGAAAAGTTTTTGATTGTACCTTAGTGCACTCAACAGTGCAGCCACACCACCAGCC [PL001] |  | IC50 ([1]; 5-(N-benzylcarboxamide)-2'-deoxyuridine (Bz-dU) at every n): 6 nM; IC50 ([1]; 5-(N-benzylcarboxamide)-2'-deoxyuridine (Bz-dU) at every n, repeat experiment): 10.5 nM; Kd ([2]; 5-(N-benzylcarboxamide)-2'-deoxyuridine (Bz-dU) at every n, Bmax 0.07): 1.1 nM
2 | GCCTGATGAAAAGTTTTTGATTGTACCTTAGTGCACTCAACAGTGC [PL017] | 4 | 
3 | GAGTGACCGTCTGCCTGTGTATGCCGCACGATCGCCCTATTTTGCGAGTTTACTCACAGCCACACCACCAGCC [PL002] | 31.3 | Kd ([2]; Bz-dU at every n, Bmax 0.05, 40 mM HEPES, 102 mM NaCl, 5 mM KCl): 0.18 nM
4 | GCCTGATGAAAAGTTTTTGATTGTACCTTAGTGC [PL003] | 6.3 | 
5 | ATGAAAAGTTTTTGATTGTACCTTAGTGCACTCAACAGTG [PL019] | 15.3 | 
6 | AAGTTTTTGATTGTACCTTAGTGC [PL009] | 4.6 | 
7 | GAGTGACCGTCTGCCTGCCATTTCCTGCTTGCTCTTCCTCCTTTATTTTTCACCTTTCAGCCACACCACCAGCC [PL029] |  | Kd ([2]; Bz-dU at every n, Bmax 0.10): 243 nM
8 | TGTATGCCGCACGATCGCCCTATTTTGCGAGTTTACTCA [PL006] | 9.6 | 
9 | GCCTGTGTATGCCGCACGATCGCCCTATTTTGCGAGTTTACTCACAGCC [PL005] | 12.6 | 
10 | GAGTGACCGTCTGCCTGTTAAGCGGCTAAGTTTTTGATTGTACCTTAGTGCCCTTACCAGCCACACCACCAGCC [PL010] |  | Kd ([2]; Bz-dU at every n, Bmax 0.06): 0.93 nM
11 | GAGTGACCGTCTGCCTGTGTATGCCGCACGATCGCCCTATTTTGCGAGTTTAACTGACAGCCACACCACCAGCC [PL028] |  | Kd ([2]; Bz-dU at every n, Bmax 0.06): 1.36 nM
12 | ATGAAAAGTTTTTGATTGTACCTTAGTGC [PL004] | 7 | 
13 | GCCTGATGAAAAGTTTTTGATTGTACCTTAGTGCACTCAACAGTGCAGCC [PL016] | 3.3 | 
14 | ATGCCGCACGATCGCCCTATTTTGCGAGTTTAC [PL007] |  | IC50 ([1]; Bz-dU at every n, anti-PD-L1 antibody 1.2 nM): 4.7 nM
